The values below come from patent publication US20180328920A1 (Hoffmann-La Roche, published 2018).

The target of test [1] is T1, Tim3-CLIP (human Tim3 extracellular domain - CLIP tag - Tim3 transmembrane region - Flag tag, on HEK293 cells) (human, CLIP tag labelled with CLIP-Red (FRET acceptor dye)).
T1 construct: also called Tim3 receptor on PD1+Tim3+ HEK cells
Put plainly: cell-based TR-FRET on PD1-SNAP/Tim3-CLIP HEK293 cells (FIG. 5). On the procedure: Transfected cells were sedimented and resuspended at a density of 1×10⁶ cells/ml in tag-Lite® buffer (Cisbio). Thereafter, cells were stained with 100 nM SNAP-Lumi4-Tb (Cisbio) and 100 nM CLIP-Red (Cisbio) for one hour at 37° C. in tag-Lite® buffer (Cisbio). After washing and re-suspending in PBS buffer comprising 2% FCS (v/v), about 50.000 cells (in 50 μl volume) were seeded into 96-well flat-bottom white plates (Costar) bevor either control antibody (e.g. a bivalent, monospecific antibody or an isotype control) or bispecific antibody was added to the cells at a final concentration of 0.001-10 nM. After an incubation for one hour at 4° C. or room temperature, time-resolved fluorescence was measured as ratio of the emission signal at 665 nm and 620 nm (665/620 nm ratio) with a BMG Pherastar reader or Tecan Infinite M1000 Pro using standard settings provided by the respective vendor.
(In general: Time-resolved FRET reads energy transfer from a long-lived donor to a nearby acceptor.)

In test [2] the target is T2, PD1-SNAP (human PD1 extracellular domain - SNAP tag - PD1 transmembrane region - Flag tag, on HEK293 cells) (human, SNAP tag labelled with SNAP-Lumi4-Tb (FRET donor dye)).
T2 construct: also called PD1 receptor on PD1+Tim3+ HEK cells
Put plainly: cell-based TR-FRET (Tag-lite) on HEK293 cells co-expressing PD1-SNAP and Tim3-CLIP; signal needs simultaneous binding of both.

For test [3], the target named is T2, PD1-SNAP (human PD1 extracellular …). Put plainly: cell-based TR-FRET on PD1-SNAP/Tim3-CLIP HEK293 cells, antibody at 0.01-40 nM, 1 h at 4 C (FIG. 6, diamond). On the procedure: (§1) Transfected cells were sedimented and resuspended at a density of 1×10⁶ cells/ml in tag-Lite® buffer (Cisbio). Thereafter, cells were stained with 100 nM SNAP-Lumi4-Tb (Cisbio) and 100 nM CLIP-Red (Cisbio) for one hour at 37° C. in tag-Lite® buffer (Cisbio). […] After an incubation for one hour at 4° C. or room temperature, time-resolved fluorescence was measured as ratio of the emission signal at 665 nm and 620 nm (665/620 nm ratio) with a BMG Pherastar reader or Tecan Infinite M1000 Pro using standard settings provided by the respective vendor.
(§2) To show the specificity of the FRET signal induced by simultaneous binding of the bispecific antibody, monoclonal IgGs of only one specificity were added for competition. Therefore, PD1 and Tim3 expressing HEK cells as described before were labelled with 100 nM SNAP-Lumi4-Tb and 100 nM CLIP-Red. […] A FRET signal was detected. To underline the specificity of FRET signal after bispecific antibody treatment, a monospecific, bivalent anti-PD1 monoclonal antibody was tested alone (FIG. 6, triangle). No FRET signal was detected. If the monospecific, bivalent anti-PD1 monoclonal antibody and the bispecific anti-PD1/Tim3 antibody were present (80 nM monospecific antibody concentration) no FRET signal was detected (FIG. 6, squares). Likewise no FRET signal was obtained if a bivalent, monospecific anti-Tim3 antibody was added (see FIG. 7).

Test [4] deals with T1, Tim3-CLIP (human Tim3 extracellular …). The test is described as above. The procedure: as §1, §2
For test [5] the target is unchanged. In words: cell-based TR-FRET (Tag-lite) on HEK293 cells co-expressing PD1-SNAP and Tim3-CLIP; signal needs simultaneous binding of both.

B1: PD1-Tim3-0389 (bispecific antibody, human IgG1, kappa, L234A L235A)
heavy 1: not shown
heavy 2: EVQLQQSVAELVRPGASVKLSCTASGFNIKTTYMHWVKQRPEQGLEWIGRIDPADDNTKYAPKFQGKATITADTSSNTAYLQLSSLTSEDAAIYYCVRDFGYVAWFAYWGQGTLVTFSAASTKGPSVFPLAPSSKSTSGGTAALGCLVEDYFPEPVTVSWNSGALTSGVHTFPAVLQSSGLYSLSSVVTVPSSSLGTQTYICNVNHKPSNTKVDEKVEPKSCDKTHTCPPCPAPEAAGGPSVFLFPPKPKDTLMISRTPEVTCVVVDVSHEDPEVKFNWYVDGVEVHNAKTKPREEQYNSTYRVVSVLTVLHQDWLNGKEYKCKVSNKALGAPIEKTISKAKGQPREPQVCTLPPSRDELTKNQVSLSCAVKGFYPSDIAVEWESNGQPENNYKTTPPVLDSDGSFFLVSKLTVDKSRWQQGNVFSCSVMHEALHNRFTQKSLSLSPGK
light 1: EVILVESGGGLVKPGGSLKLSCAASGFSFSSYTMSWVRQTPEKRLDWVATISGGGRDIYYPDSVKGRFTISRDNAKNTLYLEMSSLMSEDTALYYCVLLTGRVYFALDSWGQGTSVTVSSASVAAPSVFIFPPSDEQLKSGTASVVCLLNNFYPREAKVQWKVDNALQSGNSQESVTEQDSKDSTYSLSSTLTLSKADYEKHKVYACEVTHQGLSSPVTKSFNRGEC
light 2: NIVMTPTPKFLPVSSGDRVTMTCRASQSVDNYVAWYQQKPGQSPKLLIYYASNRYIGVPDRFTGSGSGTDFTFTISSVQVEDLAVYFCQQHYSSPYTFGSGTKLEIKRTVAAPSVFIFPPSDRKLKSGTASVVCLLNNFYPREAKVQWKVDNALQSGNSQESVTEQDSKDSTYSLSSTLTLSKADYEKHKVYACEVTHQGLSSPVTKSFNRGEC
notes: also called bispecific anti-PD1/Tim3 antibody
In the case of B1, the binding result in test [1] and in test [2] was “binds” in each case.

B2: PD1-Tim3-0168 (bispecific antibody, human IgG1, kappa, L234A L235A)
heavy 1: not shown
heavy 2: QVTLKESGPGILQPSQTLSLTCSFSGFSLSTSGMSVGWIRQPSGKGLEWLAHIWLNDDVFFNPALKRRLTISKDTSNNQVFLQIASVVTADTATYYCVRANGYLYALDYWGQGISVTVSSASTKGPSVFPLAPSSKSTSGGTAALGCLVEDYFPEPVTVSWNSGALTSGVHTFPAVLQSSGLYSLSSVVTVPSSSLGTQTYICNVNHKPSNTKVDEKVEPKSCDKTHTCPPCPAPEAAGGPSVFLFPPKPKDTLMISRTPEVTCVVVDVSHEDPEVKFNWYVDGVEVHNAKTKPREEQYNSTYRVVSVLTVLHQDWLNGKEYKCKVSNKALGAPIEKTISKAKGQPREPQVCTLPPSRDELTKNQVSLSCAVKGFYPSDIAVEWESNGQPENNYKTTPPVLDSDGSFFLVSKLTVDKSRWQQGNVFSCSVMHEALHNRFTQKSLSLSPGK
light 1: B1 light 1
light 2: QIVLTQSPAIMSASPGQKVTITCSASSSVNYTQWYQQKLGSSPKLWIYDAFKLAPGVPARFSGSGTGTSYSLTISSMEAEDAASYFCHQWSSYPWTFGGGTKLEIKRTVAAPSVFIFPPSDRKLKSGTASVVCLLNNFYPREAKVQWKVDNALQSGNSQESVTEQDSKDSTYSLSSTLTLSKADYEKHKVYACEVTHQGLSSPVTKSFNRGEC
For B2, the binding result in test [3] and in test [4] was “binds” each time.

B3: PD1-Tim3-0359 (bispecific antibody, human IgG1, kappa, L234A L235A)
heavy: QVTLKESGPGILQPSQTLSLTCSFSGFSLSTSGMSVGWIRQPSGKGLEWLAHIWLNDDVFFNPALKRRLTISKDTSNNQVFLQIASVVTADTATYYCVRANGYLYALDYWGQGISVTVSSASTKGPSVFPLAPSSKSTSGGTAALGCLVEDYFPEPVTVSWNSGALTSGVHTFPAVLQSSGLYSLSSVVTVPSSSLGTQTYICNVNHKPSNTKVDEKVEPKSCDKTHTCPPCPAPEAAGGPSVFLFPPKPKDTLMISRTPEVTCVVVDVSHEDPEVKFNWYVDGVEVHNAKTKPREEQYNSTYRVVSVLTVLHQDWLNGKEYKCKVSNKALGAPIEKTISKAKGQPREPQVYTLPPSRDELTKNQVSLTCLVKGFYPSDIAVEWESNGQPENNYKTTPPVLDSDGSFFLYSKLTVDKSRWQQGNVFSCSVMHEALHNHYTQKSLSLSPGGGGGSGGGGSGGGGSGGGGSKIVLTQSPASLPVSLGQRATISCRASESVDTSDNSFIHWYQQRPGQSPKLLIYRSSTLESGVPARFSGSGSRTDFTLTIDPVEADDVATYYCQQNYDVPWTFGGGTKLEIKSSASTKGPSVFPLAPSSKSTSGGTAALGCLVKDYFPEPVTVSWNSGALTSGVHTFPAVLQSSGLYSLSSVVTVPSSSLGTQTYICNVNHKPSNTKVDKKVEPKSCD
light 1: B2 light 2
light 2: B1 light 1
notes: also called 2+2 format bispecific antibody PD1-Tim3-0359
Regarding B3, the binding result in test [2] and in test [5] was “binds” each time.

B4: PD1-Tim3-0476 (bispecific antibody)
heavy 1: not shown
heavy 2: EVQLVESGGGLVQPGGSLRLSCAASGFNIKTTYMHWVRQAPGKGLEWVGRIDPADDNTKYAPKFQGKATISADTSKNTAYLQMNSLRAEDTAVYYCVRDFGYVAWFAYWGQGTLVTVSSASTKGPSVFPLAPSSKSTSGGTAALGCLVEDYFPEPVTVSWNSGALTSGVHTFPAVLQSSGLYSLSSVVTVPSSSLGTQTYICNVNHKPSNTKVDEKVEPKSCDKTHTCPPCPAPEAAGGPSVFLFPPKPKDTLMISRTPEVTCVVVDVSHEDPEVKFNWYVDGVEVHNAKTKPREEQYNSTYRVVSVLTVLHQDWLNGKEYKCKVSNKALGAPIEKTISKAKGQPREPQVCTLPPSRDELTKNQVSLSCAVKGFYPSDIAVEWESNGQPENNYKTTPPVLDSDGSFFLVSKLTVDKSRWQQGNVFSCSVMHEALHNHYTQKSLSLSPGK
light 1: EVQLLESGGGLVQPGGSLRLSCAASGFSFSSYTMSWVRQAPGKGLEWVATISGGGRDIYYPDSVKGRFTISRDNSKNTLYLQMNSLRAEDTAVYYCVLLTGRVYFALDSWGQGTLVTVSSASVAAPSVFIFPPSDEQLKSGTASVVCLLNNFYPREAKVQWKVDNALQSGNSQESVTEQDSKDSTYSLSSTLTLSKADYEKHKVYACEVTHQGLSSPVTKSFNRGEC
light 2: DIVMTQSPLSLPVTPGEPASISCRASQSVDNYVAWYLQKPGQSPQLLIYYASNRYIGVPDRFSGSGSGTDFTLKISRVEAEDVGVYYCQQHYSSPYTFGQGTKVEIKRTVAAPSVFIFPPSDRKLKSGTASVVCLLNNFYPREAKVQWKVDNALQSGNSQESVTEQDSKDSTYSLSSTLTLSKADYEKHKVYACEVTHQGLSSPVTKSFNRGEC
Turning to B4, the binding result in test [5] was “binds”.

B5: PD1-Tim3-0477 (bispecific antibody)
heavy 1: not shown
heavy 2: QITLKESGPTLVKPTQTLTLTCTFSGFSLSTSGMSVGWIRQPPGKGLEWLAHIWLNDDVFFNPALKSRLTITKDTSKNQVVLTMTNMDPVDTATYYCVRANGYLYALDYWGQGTLVTVSSASTKGPSVFPLAPSSKSTSGGTAALGCLVEDYFPEPVTVSWNSGALTSGVHTFPAVLQSSGLYSLSSVVTVPSSSLGTQTYICNVNHKPSNTKVDEKVEPKSCDKTHTCPPCPAPEAAGGPSVFLFPPKPKDTLMISRTPEVTCVVVDVSHEDPEVKFNWYVDGVEVHNAKTKPREEQYNSTYRVVSVLTVLHQDWLNGKEYKCKVSNKALGAPIEKTISKAKGQPREPQVCTLPPSRDELTKNQVSLSCAVKGFYPSDIAVEWESNGQPENNYKTTPPVLDSDGSFFLVSKLTVDKSRWQQGNVFSCSVMHEALHNHYTQKSLSLSPGK
light 1: B4 light 1
light 2: DIQLTQSPSFLSASVGDRVTITCSASSSVSYTQWYQQKPGKAPKLWIYDAFKLAPGVPSRFSGSGSGTEFTLTISSLQPEDFATYFCHQWSSYPWTFGQGTKLEIKRTVAAPSVFIFPPSDRKLKSGTASVVCLLNNFYPREAKVQWKVDNALQSGNSQESVTEQDSKDSTYSLSSTLTLSKADYEKHKVYACEVTHQGLSSPVTKSFNRGEC
Consider B5, for which the binding result in test [5] is “binds”.
